Data: paper PMC2864356 (Biochemistry, 2010)

Legend:
Assay in all cases: inhibition of PDE activity
[1] = biological target: PDE5/6cd M804A (human) (UniProt O76074)
[2] = biological target: PDE5/6cd M804L (human) (UniProt O76074)
[3] = biological target: PDE5/6cd L792R/V796E/Q799I (human) (UniProt O76074)
[4] = biological target: chimeric PDE5/PDE6 catalytic domain PDE5/6cd (human) (UniProt O76074)
[5] = biological target: PDE5/6cd I802A (human) (UniProt O76074)
[6] = biological target: PDE5/6cd L792R (human) (UniProt O76074)
[7] = biological target: PDE5/6cd I802A/P803D/M804L (human) (UniProt O76074)
[8] = biological target: PDE5/6cd V796E (human) (UniProt O76074)
[9] = biological target: PDE5/6cd F823A (human) (UniProt O76074)
[10] = biological target: PDE5/6cd I802A//M804A (human) (UniProt O76074)
[11] = biological target: PDE5/6cd I802T/P803D/M804L (human) (UniProt O76074)
[12] = biological target: PDE5/6cd P803D (human) (UniProt O76074)
[13] = biological target: PDE5/6cd I802T (human) (UniProt O76074)
[14] = biological target: PDE5/6cd Q799I (human) (UniProt O76074)
[15] = biological target: PDE5cd A823F (human, UniProt O76074 535-860, A823F)
[16] = biological target: PDE5cd T802I/D803P/L804M/A823F (human, UniProt O76074 535-860, T802I | D803P | L804M | A823F)
[17] = biological target: PDE5cd R792L/E796V/I799Q/A823F (human, UniProt O76074 535-860, R792L | E796V | I799Q | A823F)

Ki [1] [µM]	Ki [2] [µM]	Ki [3] [µM]	Ki [4] [µM]	Ki [5] [µM]	Ki [6] [µM]	Ki [7] [µM]	Ki [8] [µM]	Ki [9] [µM]	Ki [10] [µM]	Ki [11] [µM]	Ki [12] [µM]	Ki [13] [µM]	Ki [14] [µM]	Ki [15] [µM]	maximal inhibition (%) [15] [%]	Ki [16] [µM]	maximal inhibition (%) [16] [%]	Ki [17] [µM]	maximal inhibition (%) [17] [%]	Molecule
10.3	2	6	1.7	12.1	3.2	25.5	1.8	15.1	26.2	21.8	6.7	8.6	3.5	–	–	–	–	–	–	Pγ C-terminal peptide Pγ_(63-87) (from UniProt P04972 63-87)
–	–	–	–	–	–	–	–	–	–	–	–	–	–	44.3	52 ± 4	19.4	72 ± 4	23.5	78 ± 5	DITVICPWEAFNHLELHELAQYGII (peptide, UniProt P04972 63-87, looked up) [Pγ C-terminal peptide Pγ_(63-87)]
